B1: nemolizumab AE-HPLC fraction, peak b8 (Pre-Region 2), predominantly the succinimide form (Asu103 variant) (antibody, V domains shown)
VH: QVQLVQSGAEVKKPGASVKVSCKASGYTFTGYIMNWVRQAPGQGLEWMGLINPYNGGTDYNPQFQDRVTITADKSTSTAYMELSSLRSEDTAVYYCARDGYDDGPYTLETWGQGTLVTVSS
VL: DIQMTQSPSSLSASVGDRVTITCQASEDIYSFVAWYQQKPGKAPKLLIYNAQTEAQGVPSRFSGSGSGTDFTLTISSLQPEDFATYYCQHHYDSPLTFGGGTKVEIKR
modifications: Asp103 (Kabat numbering position 99) altered to a succinimide residue (Asu103) at a ratio of 54.0% on peptide basis; Asp99 (Kabat 95) to succinimide 2.7%
B2: nemolizumab AE-HPLC fraction, peak a1 (Post-Region) (antibody, V domains shown)
VH: QVQLVQSGAEVKKPGASVKVSCKASGYTFTGYIMNWVRQAPGQGLEWMGLINPYNGGTDYNPQFQDRVTITADKSTSTAYMELSSLRSEDTAVYYCARDGYDDGPYTLETWGQGTLVTVSS
VL: DIQMTQSPSSLSASVGDRVTITCQASEDIYSFVAWYQQKPGKAPKLLIYNAQTEAQGVPSRFSGSGSGTDFTLTISSLQPEDFATYYCQHHYDSPLTFGGGTKVEIKR
modifications: Deamidation at Asn384 in HC; ratio not given
B3: nemolizumab AE-HPLC fraction, peaks a2 + a3 (Post-Region) (antibody, V domains shown)
VH: QVQLVQSGAEVKKPGASVKVSCKASGYTFTGYIMNWVRQAPGQGLEWMGLINPYNGGTDYNPQFQDRVTITADKSTSTAYMELSSLRSEDTAVYYCARDGYDDGPYTLETWGQGTLVTVSS
VL: DIQMTQSPSSLSASVGDRVTITCQASEDIYSFVAWYQQKPGKAPKLLIYNAQTEAQGVPSRFSGSGSGTDFTLTISSLQPEDFATYYCQHHYDSPLTFGGGTKVEIKR
B4: nemolizumab AE-HPLC fraction, peak a5 (Post-Region) (antibody, V domains shown)
VH: QVQLVQSGAEVKKPGASVKVSCKASGYTFTGYIMNWVRQAPGQGLEWMGLINPYNGGTDYNPQFQDRVTITADKSTSTAYMELSSLRSEDTAVYYCARDGYDDGPYTLETWGQGTLVTVSS
VL: DIQMTQSPSSLSASVGDRVTITCQASEDIYSFVAWYQQKPGKAPKLLIYNAQTEAQGVPSRFSGSGSGTDFTLTISSLQPEDFATYYCQHHYDSPLTFGGGTKVEIKR
modifications: Deamidation at Asn55 in HC; ratio not given
B5: nemolizumab AE-HPLC fraction, peak a4 (Post-Region) (antibody, V domains shown)
VH: QVQLVQSGAEVKKPGASVKVSCKASGYTFTGYIMNWVRQAPGQGLEWMGLINPYNGGTDYNPQFQDRVTITADKSTSTAYMELSSLRSEDTAVYYCARDGYDDGPYTLETWGQGTLVTVSS
VL: DIQMTQSPSSLSASVGDRVTITCQASEDIYSFVAWYQQKPGKAPKLLIYNAQTEAQGVPSRFSGSGSGTDFTLTISSLQPEDFATYYCQHHYDSPLTFGGGTKVEIKR
B6: nemolizumab AE-HPLC fraction, peaks b2 + b3 (Pre-Region 1) (antibody, V domains shown)
VH: QVQLVQSGAEVKKPGASVKVSCKASGYTFTGYIMNWVRQAPGQGLEWMGLINPYNGGTDYNPQFQDRVTITADKSTSTAYMELSSLRSEDTAVYYCARDGYDDGPYTLETWGQGTLVTVSS
VL: DIQMTQSPSSLSASVGDRVTITCQASEDIYSFVAWYQQKPGKAPKLLIYNAQTEAQGVPSRFSGSGSGTDFTLTISSLQPEDFATYYCQHHYDSPLTFGGGTKVEIKR
modifications: Asu103 in HC; ratio not given
B7: nemolizumab AE-HPLC fraction, peak a6 (Post-Region) (antibody, V domains shown)
VH: QVQLVQSGAEVKKPGASVKVSCKASGYTFTGYIMNWVRQAPGQGLEWMGLINPYNGGTDYNPQFQDRVTITADKSTSTAYMELSSLRSEDTAVYYCARDGYDDGPYTLETWGQGTLVTVSS
VL: DIQMTQSPSSLSASVGDRVTITCQASEDIYSFVAWYQQKPGKAPKLLIYNAQTEAQGVPSRFSGSGSGTDFTLTISSLQPEDFATYYCQHHYDSPLTFGGGTKVEIKR
modifications: Deamidation at Asn55 in the CDRs of the heavy chain, 14.9%
B8: nemolizumab AE-HPLC fraction, peaks b4 + b5 + b6 + b7 (Pre-Region 2) (antibody, V domains shown)
VH: QVQLVQSGAEVKKPGASVKVSCKASGYTFTGYIMNWVRQAPGQGLEWMGLINPYNGGTDYNPQFQDRVTITADKSTSTAYMELSSLRSEDTAVYYCARDGYDDGPYTLETWGQGTLVTVSS
VL: DIQMTQSPSSLSASVGDRVTITCQASEDIYSFVAWYQQKPGKAPKLLIYNAQTEAQGVPSRFSGSGSGTDFTLTISSLQPEDFATYYCQHHYDSPLTFGGGTKVEIKR
modifications: Asu103 in HC (succinimide at Asp103); ratio not given
B9: nemolizumab AE-HPLC fraction, peak b1 (Pre-Region 1), isoAsp form (antibody, V domains shown)
VH: QVQLVQSGAEVKKPGASVKVSCKASGYTFTGYIMNWVRQAPGQGLEWMGLINPYNGGTDYNPQFQDRVTITADKSTSTAYMELSSLRSEDTAVYYCARDGYDDGPYTLETWGQGTLVTVSS
VL: DIQMTQSPSSLSASVGDRVTITCQASEDIYSFVAWYQQKPGKAPKLLIYNAQTEAQGVPSRFSGSGSGTDFTLTISSLQPEDFATYYCQHHYDSPLTFGGGTKVEIKR
modifications: IsoAsp in CDR (Asp99/102/103) in HC, site not identified: two isoAsp residue-containing peptides at 11.6% and 2.7%; Asu99 1.1%, Asu102 0.2%, Asu103 4.7%

For the assay, the target named is T1, human IL-31R (IL-31 receptor) expressed on BaF cells (BaF/hIL-31R cells) (human, UniProt Q8NI17 20-732).
T1 sequence (looked up): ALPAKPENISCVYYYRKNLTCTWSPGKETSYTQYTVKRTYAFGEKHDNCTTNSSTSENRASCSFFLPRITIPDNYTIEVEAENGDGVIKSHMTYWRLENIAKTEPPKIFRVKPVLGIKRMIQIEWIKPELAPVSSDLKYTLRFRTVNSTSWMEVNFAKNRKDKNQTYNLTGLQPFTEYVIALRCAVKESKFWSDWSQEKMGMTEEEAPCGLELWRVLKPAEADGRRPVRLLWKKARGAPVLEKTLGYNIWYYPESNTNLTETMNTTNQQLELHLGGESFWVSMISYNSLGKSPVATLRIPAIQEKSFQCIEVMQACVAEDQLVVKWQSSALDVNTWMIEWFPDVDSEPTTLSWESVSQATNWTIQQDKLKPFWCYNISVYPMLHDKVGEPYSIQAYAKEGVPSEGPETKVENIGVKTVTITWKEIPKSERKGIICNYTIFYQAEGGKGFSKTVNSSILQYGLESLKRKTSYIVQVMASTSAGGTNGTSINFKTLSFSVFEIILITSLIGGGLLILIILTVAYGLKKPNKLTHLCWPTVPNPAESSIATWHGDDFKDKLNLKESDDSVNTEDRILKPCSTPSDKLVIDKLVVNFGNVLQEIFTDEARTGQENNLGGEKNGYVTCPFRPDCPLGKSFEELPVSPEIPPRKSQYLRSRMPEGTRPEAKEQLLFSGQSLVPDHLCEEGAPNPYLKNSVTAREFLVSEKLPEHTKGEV
Nature of the assay: cell-based or functional assay.
Regarding B1, the “Relative biological activity compared to CIM331 reference material (%); inhibition of IL-31-dependent proliferation of BaF/hIL-31R cells” value came to 23% and the “Relative biological activity compared to main peak (%); inhibition of IL-31-dependent proliferation of BaF/hIL-31R cells” value stood at 21%.
In the same order, the values of B2 are 110% and 100%.
As to B3, the “Relative biological activity compared to CIM331 reference material (%); inhibition of IL-31-dependent proliferation of BaF/hIL-31R cells” value is 110% and the “Relative biological activity compared to main peak (%); inhibition of IL-31-dependent proliferation of BaF/hIL-31R cells” value was determined as 100%.
Taken in the same sequence, the figures for B4 were 88% and 79%.
Take B5: the “Relative biological activity compared to CIM331 reference material (%); inhibition of IL-31-dependent proliferation of BaF/hIL-31R cells” value worked out at 90% and the “Relative biological activity compared to main peak (%); inhibition of IL-31-dependent proliferation of BaF/hIL-31R cells” value was found to be 82%.
Taken in the same sequence, the figures for B6 were 73% and 66%.
With B7, the “Relative biological activity compared to CIM331 reference material (%); inhibition of IL-31-dependent proliferation of BaF/hIL-31R cells” value is 94% and the “Relative biological activity compared to main peak (%); inhibition of IL-31-dependent proliferation of BaF/hIL-31R cells” value stood at 85%.
In the same order, the values of B8 are 89% and 80%.
In the same order, the values of B9 are 45% and 41%.

Source of the values: patent US20250163163A1 (Chugai, published 2025).
